Experimental data: article doi:10.1101/2021.11.08.467681 (bioRxiv, 2021)

B1: FtsA WT (natural protein)
chain: MIKATDRKLVVGLEIGTAKVAALVGEVLPDGMVNIIGVGSCPSRGMDKGGVNDLESVVKCVQRAIDQAELMADCQISSVYLALSGKHISCQNEIGMVPISEEEVTQEDVENVVHTAKSVRVRDEHRVLHVIPQEYAIDYQEGIKNPVGLSGVRMQAKVHLITCHNDMAKNIVKAVERCGLKVDQLIFAGLASSYSVLTEDERELGVCVVDIGGGTMDIAVYTGGALRHTKVIPYAGNVVTSDIAYAFGTPPSDAEAIKVRHGCALGSIVGKDESVEVPSVGGRPPRSLQRQTLAEVIEPRYTELLNLVNEEILQLQEKLRQQGVKHHLAAGIVLTGGAAQIEGLAACAQRVFHTQVRIGAPLNITGLTDYAQEPYYSTAVGLLHYGKESHLNGEAEVEKRVTASVGSWIKRLNSWLRKEF
B2: FtsA WT(1-405)-6xHis (domain or fragment)
chain: MIKATDRKLVVGLEIGTAKVAALVGEVLPDGMVNIIGVGSCPSRGMDKGGVNDLESVVKCVQRAIDQAELMADCQISSVYLALSGKHISCQNEIGMVPISEEEVTQEDVENVVHTAKSVRVRDEHRVLHVIPQEYAIDYQEGIKNPVGLSGVRMQAKVHLITCHNDMAKNIVKAVERCGLKVDQLIFAGLASSYSVLTEDERELGVCVVDIGGGTMDIAVYTGGALRHTKVIPYAGNVVTSDIAYAFGTPPSDAEAIKVRHGCALGSIVGKDESVEVPSVGGRPPRSLQRQTLAEVIEPRYTELLNLVNEEILQLQEKLRQQGVKHHLAAGIVLTGGAAQIEGLAACAQRVFHTQVRIGAPLNITGLTDYAQEPYYSTAVGLLHYGKESHLNGEAEVEKRVTASV
B3: FtsA R286W (1-405)-6xHis (domain or fragment)
chain: MIKATDRKLVVGLEIGTAKVAALVGEVLPDGMVNIIGVGSCPSRGMDKGGVNDLESVVKCVQRAIDQAELMADCQISSVYLALSGKHISCQNEIGMVPISEEEVTQEDVENVVHTAKSVRVRDEHRVLHVIPQEYAIDYQEGIKNPVGLSGVRMQAKVHLITCHNDMAKNIVKAVERCGLKVDQLIFAGLASSYSVLTEDERELGVCVVDIGGGTMDIAVYTGGALRHTKVIPYAGNVVTSDIAYAFGTPPSDAEAIKVRHGCALGSIVGKDESVEVPSVGGRPPWSLQRQTLAEVIEPRYTELLNLVNEEILQLQEKLRQQGVKHHLAAGIVLTGGAAQIEGLAACAQRVFHTQVRIGAPLNITGLTDYAQEPYYSTAVGLLHYGKESHLNGEAEVEKRVTASV

Target: the molecule itself
Experiment: FRET or BRET

Binding result, binds:
B1
B2
B3
